In publication PMC11826918, “Generation of antagonistic biparatopic anti-CD30 antibody from an agonistic antibody by precise epitope determination and utilization of structural characteristics of CD30 molecule” (Antibody Therapeutics, 2025):

How the values were obtained:
Experiment in all cases: SPR; Biacore T200; antibody captured on anti-human Fc (CM5 chip); CD30-MBP flowed at 0, 2, 20 nM (T426: 0, 20, 200 nM), contact 90 s, dissociation 300 s; fit to a 1:1 binding mode; rough-level analysis
Settings in all cases: both partners purified
BpT107-427 = molecular target: T1, BpT107-427
T1 construct: T107 Fv, N side; T427 Fv, C side; one Fab of each Fv; knobs-into-holes Fc; source: Expi293 fragments joined by intein-mediated protein trans-splicing, purified (Superdex 200 Increase); copies: + + +

BpT427-405 = molecular target: T2, BpT427-405
T2 construct: T427 Fv, N side; T405 Fv, C side; one Fab of each Fv; knobs-into-holes Fc; source: Expi293 fragments joined by intein-mediated protein trans-splicing, purified (Superdex 200 Increase); copies: + + +

BpT104-25 = molecular target: T3, BpT104-25
T3 construct: T104 Fv, N side; T25 Fv, C side; one Fab of each Fv; knobs-into-holes Fc; source: Expi293 fragments joined by intein-mediated protein trans-splicing, purified (Superdex 200 Increase); copies: + + +

BpT107-104 = molecular target: T4, BpT107-104
T4 construct: T107 Fv, N side; T104 Fv, C side; one Fab of each Fv; knobs-into-holes Fc; source: Expi293 fragments joined by intein-mediated protein trans-splicing, purified (Superdex 200 Increase); copies: + + +

BpT105-6 = molecular target: T5, BpT105-6
T5 construct: T105 Fv, N side; T6 Fv, C side; one Fab of each Fv; knobs-into-holes Fc; source: Expi293 fragments joined by intein-mediated protein trans-splicing, purified (Superdex 200 Increase); copies: + + +

BpT10-105 = molecular target: T6, BpT10-105
T6 construct: AC10 Fv, N side; T105 Fv, C side; one Fab of each Fv; knobs-into-holes Fc; source: Expi293 fragments joined by intein-mediated protein trans-splicing, purified (Superdex 200 Increase); copies: + + +

BpT107-6 = molecular target: T7, BpT107-6
T7 construct: T107 Fv, N side; T6 Fv, C side; one Fab of each Fv; knobs-into-holes Fc; source: Expi293 fragments joined by intein-mediated protein trans-splicing, purified (Superdex 200 Increase); copies: + + +

BpT10-104 = molecular target: T8, BpT10-104
T8 construct: AC10 Fv, N side; T104 Fv, C side; one Fab of each Fv; knobs-into-holes Fc; source: Expi293 fragments joined by intein-mediated protein trans-splicing, purified (Superdex 200 Increase); copies: + + +

BpT405-6 = molecular target: T9, BpT405-6
T9 construct: T405 Fv, N side; T6 Fv, C side; one Fab of each Fv; knobs-into-holes Fc; source: Expi293 fragments joined by intein-mediated protein trans-splicing, purified (Superdex 200 Increase); copies: + + +

BpT107-25 = molecular target: T10, BpT107-25
T10 construct: T107 Fv, N side; T25 Fv, C side; one Fab of each Fv; knobs-into-holes Fc; source: Expi293 fragments joined by intein-mediated protein trans-splicing, purified (Superdex 200 Increase); copies: + + +

BpT10-6 = molecular target: T11, BpT10-6
T11 construct: AC10 Fv, N side; T6 Fv, C side; one Fab of each Fv; knobs-into-holes Fc; source: Expi293 fragments joined by intein-mediated protein trans-splicing, purified (Superdex 200 Increase); copies: + + +

BpT105-405 = molecular target: T12, BpT105-405
T12 construct: T105 Fv, N side; T405 Fv, C side; one Fab of each Fv; knobs-into-holes Fc; source: Expi293 fragments joined by intein-mediated protein trans-splicing, purified (Superdex 200 Increase); copies: + + +

T3 sequence (chain, as listed by the source, chain 1 of 4): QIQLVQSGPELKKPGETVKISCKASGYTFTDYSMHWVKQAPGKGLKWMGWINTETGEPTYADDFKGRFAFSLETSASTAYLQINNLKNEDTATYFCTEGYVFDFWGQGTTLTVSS
T3 sequence (chain, as listed by the source, chain 2 of 4): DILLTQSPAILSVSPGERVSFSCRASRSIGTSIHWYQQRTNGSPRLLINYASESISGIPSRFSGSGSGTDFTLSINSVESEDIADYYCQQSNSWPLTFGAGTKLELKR
T3 sequence (chain, as listed by the source, chain 3 of 4): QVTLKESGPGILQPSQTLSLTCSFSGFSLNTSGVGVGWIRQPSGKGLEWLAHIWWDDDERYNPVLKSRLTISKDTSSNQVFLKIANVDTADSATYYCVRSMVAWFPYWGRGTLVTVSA
T3 sequence (chain, as listed by the source, chain 4 of 4): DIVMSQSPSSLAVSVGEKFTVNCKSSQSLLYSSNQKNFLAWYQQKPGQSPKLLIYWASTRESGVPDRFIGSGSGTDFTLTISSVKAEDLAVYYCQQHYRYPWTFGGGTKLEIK
T6 sequence (chain, as listed by the source, chain 1 of 4): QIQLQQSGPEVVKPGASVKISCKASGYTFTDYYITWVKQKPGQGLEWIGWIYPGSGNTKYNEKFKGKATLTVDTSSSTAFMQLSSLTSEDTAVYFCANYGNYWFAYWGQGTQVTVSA
T6 sequence (chain, as listed by the source, chain 2 of 4): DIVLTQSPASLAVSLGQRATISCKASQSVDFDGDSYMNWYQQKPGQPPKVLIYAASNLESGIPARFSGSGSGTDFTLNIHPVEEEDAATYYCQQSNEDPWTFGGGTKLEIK
T6 sequence (chain, as listed by the source, chain 3 of 4): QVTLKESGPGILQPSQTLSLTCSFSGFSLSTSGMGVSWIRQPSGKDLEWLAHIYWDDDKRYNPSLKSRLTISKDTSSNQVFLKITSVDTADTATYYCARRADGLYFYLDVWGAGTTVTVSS
T6 sequence (chain, as listed by the source, chain 4 of 4): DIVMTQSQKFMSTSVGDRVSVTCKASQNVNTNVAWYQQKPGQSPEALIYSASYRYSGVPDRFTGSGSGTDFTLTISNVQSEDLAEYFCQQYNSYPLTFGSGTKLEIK
T11 sequence (chain, as listed by the source, chain 3 of 4): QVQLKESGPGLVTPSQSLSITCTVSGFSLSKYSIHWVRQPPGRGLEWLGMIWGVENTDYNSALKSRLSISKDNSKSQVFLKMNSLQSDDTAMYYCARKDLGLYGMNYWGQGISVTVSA
T11 sequence (chain, as listed by the source, chain 4 of 4): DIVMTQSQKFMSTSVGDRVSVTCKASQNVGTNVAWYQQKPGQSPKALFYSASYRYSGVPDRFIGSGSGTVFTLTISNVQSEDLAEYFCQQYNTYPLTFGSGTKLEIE
T10 sequence (chain, as listed by the source, chain 1 of 4): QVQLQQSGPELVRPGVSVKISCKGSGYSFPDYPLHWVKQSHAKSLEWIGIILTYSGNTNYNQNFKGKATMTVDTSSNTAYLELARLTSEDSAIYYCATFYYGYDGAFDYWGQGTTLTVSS
T10 sequence (chain, as listed by the source, chain 2 of 4): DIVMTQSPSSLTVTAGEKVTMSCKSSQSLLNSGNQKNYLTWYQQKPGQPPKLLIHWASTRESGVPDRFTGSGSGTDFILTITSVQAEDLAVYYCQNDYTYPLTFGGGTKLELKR
T1 sequence (chain, as listed by the source, chain 3 of 4): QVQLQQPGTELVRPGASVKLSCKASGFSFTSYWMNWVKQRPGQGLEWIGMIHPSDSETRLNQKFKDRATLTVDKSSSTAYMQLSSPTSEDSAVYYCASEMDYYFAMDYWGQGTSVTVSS
T1 sequence (chain, as listed by the source, chain 4 of 4): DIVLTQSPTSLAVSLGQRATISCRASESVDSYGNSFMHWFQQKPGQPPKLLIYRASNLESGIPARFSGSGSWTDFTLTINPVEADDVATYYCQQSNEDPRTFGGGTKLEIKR

B1: Maltose-binding protein-fused CD30 (domain or fragment)
chain: FPQDRPFEDTCHGNPSHYYDKAVRRCCYRCPMGLFPTQQCPQRPTDCRKQCEPDYYLDEADRCTACVTCSRDDLVEKTPCAWNSSRVCECRPGMFCSTSAVNSCARCFFHSVCPAGMIVKFPGTAQKNTVCEPASPGVSPACASPENCKEPSSGTIPQAKPTPVSPATSSASTMPVRGGTRLAQEAASKLTRAPDSPSSVGRPSSDPGLSPTQPCPEGSGDCRKQCEPDYYLDEAGRCTACVSCSRDDLVEKTPCAWNSSRTCECRPGMICATSATNSCARCVPYPICAAETVTKPQDMAEKDTTFEAPPLGTQPDCN
modifications: Construct 1-336 includes signal peptide 1-18, taken as cleaved on secretion; C-terminal MBP carrier and His tag left out; disulfide-bonded, likely glycosylated (Expi293)
- Kd (BpT107-427): 0.6 nM
- Kd (BpT427-405): 0.31 nM
- Kd (BpT104-25): 0.5 nM
- Kd (BpT107-104): 0.4 nM
- Kd (BpT105-6): 0.37 nM
- Kd (BpT10-105): 0.066 nM
- Kd (BpT107-6): 0.37 nM
- Kd (BpT10-104): 0.26 nM
- Kd (BpT405-6): 0.44 nM
- Kd (BpT107-25): 0.87 nM
- Kd (BpT10-6): 0.27 nM
- Kd (BpT105-405): 0.67 nM
